Measured values from publication PMC9609871 (2022).

Target: PP2A catalytic subunit alpha (Homo sapiens, UniProt P67775)
Assay: biolayer interferometry (PP2A immobilized)

Sequence of PP2A catalytic subunit alpha (P67775 whole entry): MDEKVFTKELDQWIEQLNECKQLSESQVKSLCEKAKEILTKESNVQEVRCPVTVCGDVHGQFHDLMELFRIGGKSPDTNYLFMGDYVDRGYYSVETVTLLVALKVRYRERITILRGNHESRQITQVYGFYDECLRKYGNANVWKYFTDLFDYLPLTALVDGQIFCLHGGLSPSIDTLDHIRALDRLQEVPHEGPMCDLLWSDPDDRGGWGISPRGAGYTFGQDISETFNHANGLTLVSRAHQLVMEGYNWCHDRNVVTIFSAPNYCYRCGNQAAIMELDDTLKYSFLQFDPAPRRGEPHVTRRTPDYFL

Kd: 228 nM
B1: Caspase 9 (protein)
chain: DEADRRLLRRCRLRLVEELQVDQLWDALLSRELFRPHMIEDIQRAGSGSRRDQARQLIIDLETRGSQALPLFISCLEDTGQDMLASFLRTNRQAAKLSKPTLENLTPVVLRPEIRKPEVLRPETPRPVDIGSGGFGDVGALESLRGNADLAYILSMEPCGHCLIINNVNFCRESGLRTRTGSNIDCEKLRRRFSSLHFMVEVKGDLTAKKMVLALLELAQQDHGALDCCVVVILSHGCQASHLQFPGAVYGTDGCPVSVEKIVNIFNGTSCPSLGGKPKLFFIQACGGEQKDHGFEVASTSPEDESPGSNPEPDATPFQEGLRTFDQLDAISSLPTPSDIFVSYSTFPGFVSWRDPKSGSWYVETLDDIFEQWAHSEDLQSLLLRVANAVSVKGIYKQMPGCFNFLRKKLFFKTS
